Laboratory results as given in US20130045267A1, “METHODS OF USING AGENTS THAT MODULATE CLAUDIN EXPRESSION” (priority 2010, published 2013).
Where “and” joins values, the source holds several entries; their conditions need not be identical. Equal values may be shown once.

Key:
claudin-1 = experiment: Western blot of claudin-1 protein in primary human keratinocytes; assay type: cell-based; settings: PHK
Description: Human keratinocytes were isolated from neonatal foreskin. Poumay et al., “Basal Detachment of the Epidermis Using Dispase: Tissue Spatial Organization and Fate of Integrin Alpha 6 Beta 4 and Hemidesmosomes,” J. Invest. Dermatol. 102:111-7 (1994), which is hereby incorporated by reference in its entirety. PHK were cultured in Keratinocyte-SFM (Invitrogen/Gibco) with 1% Pen/Strep, 0.2% Amphotericin B (Invitrogen/Gibco). To differentiate PHK, cells were grown in DMEM (Invitrogen/Gibco) with 10% heat-inactivated fetal bovine serum (Invitrogen/Gibco) and 1% Pen/Strep, 0.2% Amphotericin B (Invitrogen/Gibco). For TJ modulation experiments, the following cytokines were added alone or in combination to the differentiation media; human IL-4 (50 ng/ml; R&D system) and IL-13 (50 ng/ml; R&D system).
PHK were lysed on ice in RIPA lysis buffer (20 mM Tris, 50 mM NaCl, 2 mM EDTA, 2 mM EGTA, 1% sodium deoxycholate, 1% TX-100, and 2% SDS, pH 7.4), with 1:100 Protease Inhibitor Cocktail (Sigma), 1:100 Phosphatase Inhibitor Cocktail ([…] for 30 min at 4° C. The samples were heated at 95° C. for 10 min and then centrifuged at 14,000 rpm for 15 min. Forty μg of protein, determined by BCA (Pierce) in NuPage LDS Sample Buffer (Invitrogen) was applied to 4-12% NuPage Bis-Tris gels (Invitrogen). Electrophoresis was performed under reducing conditions with MES SDS Buffer (Invitrogen). Membranes were incubated in blotting solution (5% non-fat dry milk in PBS+0.05% Tween 20) at RT for 1 h and then incubated with primary antibodies; claudin-1 (JAY.8; Zymed), occludin (OC/3F10; Zymed) and GAPDH (FL-355; Santa Cruz). An HRP-linked secondary antibody (GE Healthcare) was used with ECL (GE Healthcare) to visualize bands by autoradiography with Kodak BioMax MR film. The pixel intensity of each band was estimated with Image J.
PHK were plated on glass coverslips at 2-3×10^5 cells/well in a 6-well plate or at 2-3×10^4 cells/filter in Transwell insert (Costar; PET membrane, 0.4 μm pore size, 6.5 mm insert) in Keratinocyte-SFM without antibiotics. The next day after plating, cells were transfected with claudin-1 specific or control (scrambled) siRNAs (Santa Cruz) using Lipofectamine™ 2000 transfection Reagent (Invitrogen). TEER and permeability experiments were conducted 48 hours after PHK were switched to differentiation media.

HSV-1 strain F = experiment: HSV-1 fluorescent-focus assay in PHK; assay type: cell-based, Herpes Simplex Virus (HSV)-1; settings: siRNA 100 nM, MOI 0.1, 24 h, n=6
Description: Infection studies were performed using the highly virulent HSV-1 strain F (provided by Dr. D.C. Johnson). Twenty-four to 48 h post-transfection with 100 nM claudin-1 or control siRNA, the cells were differentiated in DMEM with 10% heat-inactivated FBS for 24 h. Cells were washed twice with HBSS and infected with HSV-1 strain F at a multiplicity of infection (MOI) of 0.1 in DMEM containing 1% heat-inactivated FBS at 37° C., with rocking every 15 min. After 2 h, the viral inoculum was removed, and the cells were washed 2× with HBSS and incubated in DMEM containing 5% HI-FBS and 0.4% human-γ-globulin (Sigma; final concentration 0.5 mg/ml) for 24 hr to neutralize any extracellular virus.
HSV-infected PHK were washed 2× with PBS and fixed in 4% formaldehyde/PBS for 20 min at room temperature. A polyclonal rabbit anti-HSV-1 (Dako) antibody diluted 1:500 in PBS/1% BSA was placed on the PHK for 1 h at 37° C. followed by Alexa Fluor 488 donkey-anti-rabbit IgG H+L (1:1000, Molecular Probes) and 4′,6-diamidino-2-phenyl-indole, dihydrochloride (DAPI) (1:10,000, Molecular Probes). Coverslips were mounted onto slides with SlowFade (Molecular Probes). […] Images were stored in Portable Network Graphics (PNG) format and analyzed computationally to objectively quantify differences in focal forming units (FFU). […] Cell density was calculated by counting the number of DAPI labeled nuclei, assigned to the blue channel. Images were analyzed using MATLAB to enumerate FFU, and total cell number. […]
The MOI was chosen based on findings from viral titration (0.01 to 10 MOI) studies on differentiated and undifferentiated PHK, respectively, used as negative and positive controls. […] For each sample, six random fields were captured at identical acquisition settings and analyzed computationally to objectively quantify differences in focal forming units (FFU). […] An average of 4.8±0.7 FFU/field were counted in CLDN1 knockdown PHK, while only 2.5±0.5 FFU/field were detected in the control cells (P=0.05; n=6; FIG. 15C). Adapted Fluorospot software was used to semi-quantify differences in dimensions of each FFU. […]

B1: CLDN1 siRNA: claudin-1 specific siRNA (Santa Cruz), a pool of 3 separate strands, SEQ ID NO: 10-15 (nucleic acid)
chain 1: UACAUAGGCAUAGUUCAUGNN
chain 2: CAUGAACUAUGCCUAUGUANN
chain 3: AACGUAUGCAGUUAAUUCCNN
chain 4: GGAAUUAACUGCAUACGUUNN
chain 5: UGAAGAUCUAUGUAUGUGGNN
chain 6: CCACAUACAUAGAUCUUCANN
modifications: chemistry not given here
claudin-1 protein by Western blot (claudin-1; CLDN1 siRNA, 48 h): dose-dependent reduction | decrease in claudin-1 protein expression compared to scrambled siRNA-transfected cells (claudin-1; dose-dependent): ≤ 60% | FFU area (HSV-1 strain F): 15649±4367 pixels | HSV-1 focal forming units (HSV-1 strain F): 4.8±0.7 FFU/field | diameter of the major axis of FFU (HSV-1 strain F): 207±22 μm and 207±21 μm
